# Measured values reported in patent US20210163580A1 (NATIONAL HEALTH RESEARCH INSTITUTES, published 2021).
# Positions of bridges follow the written chain, without caps; N, C: chain ends. No end group written: not given here.
# T1: recombinant human RSPO3 protein (human, UniProt Q9BXY4 22-272)
# T1 sequence (looked up): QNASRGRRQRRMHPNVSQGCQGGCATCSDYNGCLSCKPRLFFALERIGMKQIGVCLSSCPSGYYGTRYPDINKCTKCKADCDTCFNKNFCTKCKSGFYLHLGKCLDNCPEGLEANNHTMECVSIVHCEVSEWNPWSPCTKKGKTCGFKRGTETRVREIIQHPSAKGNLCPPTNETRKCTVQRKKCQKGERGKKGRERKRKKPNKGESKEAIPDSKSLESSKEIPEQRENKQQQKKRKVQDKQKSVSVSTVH
# T2: peptide B-40-47 (Homo sapiens, UniProt Q9BXY4, disulfide (positions not given here); also: biotinylated, intrachain disulfide, Cys pairing not given here)
# T2 construct: synthetic cyclic peptide, a.a; also called cyclic peptide a.a; 40-47 derived from hRSPO3
# T2 peptide (looked up): CQGGCATC
# T3: peptide B-44-53 (Homo sapiens, UniProt Q9BXY4, disulfide (positions not given here); also: biotinylated, intrachain disulfide, Cys pairing not given here)
# T3 construct: synthetic cyclic peptide, a.a; also called cyclic peptide a.a; 44-53 derived from hRSPO3
# T3 peptide (looked up): CATCSDYNGC
# T4: peptide B-79-94 (Homo sapiens, UniProt Q9BXY4, disulfide 1-16 (inferred); also: biotinylated)
# T4 construct: synthetic cyclic peptide, a.a; also called cyclic peptide a.a; 79-94 derived from hRSPO3
# T4 peptide (looked up): CPSGYYGTRYPDINKC
# Assays:
# [1] = target: T1, recombinant human RSPO3 protein; test: cell-based or functional assay
# [2] = target: T1, recombinant human RSPO3 protein; test: SPR (Biacore T200); hRSPO3 immobilised on CM5 chip, antibody injected, single-cycle, 1:1 model
# Method: FIG. 7 is a graph showing use of Biacore to measure the binding kinetics of α-RSPO3 Abs-antigen interaction. The binding sensorgrams were generated using a Biacore T200 and then fitted to a simple 1:1 interaction model. […] The association was monitored for 2 min, and the final dissociation time was 15 min hRSPO3 was immobilized on a CMS chip at 27.5 RU.
# The binding kinetics between α-RSPO3 Abs and recombinant human RSPO3 protein (hRSPO3) were performed at 25° C. using a Biacore T200 biosensor equipped with a CMS Series S Sensor Chip (GE Healthcare). […] Obtained sensorgrams were corrected by double subtracting the signal obtained on a reference surface and the signal of the running buffer. Sensograms were fit globally with BIAcore T200 evaluation software 3.0 using 1:1 binding model to yield affinity constants (KD values) for α-RSPO3 Abs. Replicate measurements were made in separate experiments, using independently prepared α-RSPO3 Abs dilution series and huRSPO3-coated chip surfaces.
# [3] = target: T1, recombinant human RSPO3 protein; test: competition ELISA on coated hRSPO3; blocked ligand: biotinylated LGR5 (22-560)-Fc, streptavidin-HRP [A]
# Method: After removing extra detection antibodies by washing the plates with 1× PBST, a TMB substrate solution was added to each well for 10 minutes.
# Recombinant human RSPO3 (Peprotech) at 500 ng/ml was coated on the plates.
# peptide B-40-47 = target: T2, peptide B-40-47; test: ELISA: biotinylated cyclic peptide (1 µg/ml) on NeutrAvidin plate, hB1, anti-human IgG-Fc-HRP, OD 450 [B]
# Method: (§1) FIG. 9 is a set of schematics and graphs showing epitope studies of several α-RSPO3 antibodies. […] Streptavidin-HRP was then added for detection of the bound biotinylated antibody. (B) The biotinylated cyclic peptides, at 1 μg/ml, and biotinylated recombinant human RSPO3, at 100 ng/ml, were applied to NeutrAvidin pre-coated plates. […] To detect bound anti-RSPO3 antibodies, Goat anti-human IgG-Fc-HPR (Chemicon) was then applied to the plates.
# (§2) Further conformation epitope studies of α-RSPO3 Abs were performed using recombinant RSPO3 truncated proteins and cyclic peptides scanning to narrow down their target sequences. […] RSPO3 contains a furin-like cysteine-rich region. Until now, the 3D structure of RSPO3 has not been reported. Additionally, four cyclic peptides (a.a. 40-47, 44-53, 56-75 and 79-94) were designed to measure the binding of α-RSPO3 mAbs to the cyclic peptides derived from hRSPO3.
# peptide B-44-53 = target: T3, peptide B-44-53; test: as above
# Method: as §1, §2
# peptide B-79-94 = target: T4, peptide B-79-94; test: as above
# Method: as §1, §2
binder,measurement,setting,value
"humanized anti-RSPO3 antibody hB1 (antibody, V domains shown, Humanized from murine B1) VH: QIQLQESGPGLVKPSESLSLTCSVTGYSITSGYYWNWIRQFPGNGLEWMGYISYDGTNNYNPSLKDRISITRDTSKNQFFLKLNSVTAADTATYYCSVLLIQYFNIWGKGTTVTVSS VL: DIQMTQSPSSLSASVGERVTITCRTSESVNNFLAWFHQKPGKSPKLLVYHAKTLADGVSSRFSGSGSGTQYSLKINSLQPEDFGNYYCQHFWSIPWTFGGGTKLEIKR","IC50 in the WNT reporter assay (MDA-MB436 TCF/LEF-Luc, Wnt3a plus hRSPO3)",[1],58 nM
same,Kd,[2],0.0268 nM
same,koff,[2],3.4e-05 s⁻¹
same,kon,[2],1.7e+06 M⁻¹ s⁻¹
same,IC50 (read off the curve),[3],~0.9 µg/mL
same,binding result,peptide B-40-47,no binding
same,binding result,peptide B-44-53,no binding
same,binding result,peptide B-79-94,no binding
